From patent CN114989297A (BEIJING KEY BIOTECHNOLOGY CO LTD, dated 2022)

Molecular target: T1, 单核细胞增生李斯特氏菌鞭毛蛋白免疫原 (Listeria monocytogenes, UniProt Q02551 1-287)
T1 construct: Native flagellin preparation concentrated by ultrafiltration, not a recombinant protein; purity beyond the 33 kD band is not described; also called 免疫原蛋白; 抗原
T1 sequence (looked up): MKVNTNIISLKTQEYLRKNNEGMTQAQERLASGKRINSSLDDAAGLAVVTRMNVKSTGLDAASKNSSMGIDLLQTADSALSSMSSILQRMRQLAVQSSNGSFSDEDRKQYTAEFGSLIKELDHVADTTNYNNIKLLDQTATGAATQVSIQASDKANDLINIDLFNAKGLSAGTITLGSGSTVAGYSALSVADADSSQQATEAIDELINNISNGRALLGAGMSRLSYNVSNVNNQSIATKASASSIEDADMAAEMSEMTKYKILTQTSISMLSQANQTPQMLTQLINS
Experiment: IAsys Plus optical biosensor, immunogen immobilised on CMD cuvette, antibody at 5 concentrations, FASTfit

B1: LM3F6单克隆抗体 (antibody, V domains shown)
VH: VKPGGSLKLSCAASSWAQYINTMSWVRQTPDKRLEWVAIISYYSRDKYYPDSVKGRFTISRDQDKQTLYLQMSSLKSEDTAMYYCPYTRPPVIWMTWGQGTTVTVS
VL: DLVMTQTAPSVPVTPGESVSISCRSTQGYCRKLVGDYLYWFLQRPGQSPQLLIYWHPNLASGVPDRFSGSGSGTAFTLRISRVEAEDVGVYYCLCCRCKSGGFGSGTKLEIK
B1 showed a Kd of 2.46 nM.

B2: LM6G3单克隆抗体 (antibody, V domains shown)
VH: VKPGGSLKLSCAASITAQPSPRMSWVRQTPDKRLEWVAICFEKKIGLYYPDSVKGRFTISRDQDKQTLYLQMSSLKSEDTAMYYCEHEWWDEQVSPWGQGTTVTVS
VL: DLVMTQTAPSVPVTPGESVSISCRSTFKPWPKYEPLHLYWFLQRPGQSPQLLIYMWFNLASGVPDRFSGSGSGTAFTLRISRVEAEDVGVYYCMNACCYYRQFGSGTKLEIK
In the case of B2, the Kd is reported as 8.73 nM.
